The source of these data is the supplement of paper PMC11246515.

± gives the standard deviation of the averaged measurements.

This data set is described as follows: total protein half-life in vivo (active degradation + dilution); higher = more stable protein.
The mark [1] stands for this setting: wild type E. coli NCM3722, growth: C-lim chemostat, doubling time 3 h.
Where [2] appears, read: wild type E. coli NCM3722, growth: N-lim chemostat, doubling time 12 h.
[3] abbreviates: wild type E. coli NCM3722, growth: P-lim chemostat, doubling time 12 h.
Setting [4] is: E. coli NCM3722 delta-clpP delta-lon delta-hslV, growth: N-lim chemostat, doubling time 6 h.
[5] abbreviates: E. coli NCM3722 delta-clpP, growth: N-lim chemostat, doubling time 6 h.
Where [6] appears, read: E. coli NCM3722 delta-hslV, growth: N-lim chemostat, doubling time 6 h.
Setting [7] is: E. coli NCM3722 delta-lon, growth: N-lim chemostat, doubling time 6 h.
Setting [8] is: E. coli NCM3722 delta-smpB, growth: N-lim chemostat, doubling time 6 h.
The mark [9] stands for this setting: wild type E. coli NCM3722, growth: C-lim chemostat, doubling time 6 h.
Setting [10] is: wild type E. coli NCM3722, growth: C-lim chemostat, doubling time 12 h.
[11] abbreviates: wild type E. coli NCM3722, growth: N-lim chemostat, doubling time 6 h.
Where [12] appears, read: wild type E. coli NCM3722, growth: P-lim chemostat, doubling time 6 h.

As to “MFRLNPFVRVGLCLSAISCAWPVLAVDDDGETMVVTASSVEQNLKDAPASISVITQEDLQRKPVQNLKDVLKEVPGVQLTNEGDNRKGVSIRGLDSSYTLILVDGKRVNSRNAVFRHNDFDLNWIPVDSIERIEVVRGPMSSLYGSDALGGVVNIITKKIGQKWSGTVTVDTTIQEHRDRGDTYNGQFFTSGPLIDGVLGMKAYGSLAKREKDDPQNSTTTDTGETPRIEGFSSRDGNVEFAWTPNQNHDFTAGYGFDRQDRDSDSLDKNRLERQNYSVSHNGRWDYGTSELKYYGEKVENKNPGNSSPITSESNTVDGKYTLPLTAINQFLTVGGEWRHDKLSDAVNLTGGTSSKTSASQYALFVEDEWRIFEPLALTTGVRMDDHETYGEHWSPRAYLVYNATDTVTVKGGWATAFKAPSLLQLSPDWTSNSCRGACKIVGSPDLKPETSESWELGLYYMGEEGWLEGVESSVTVFRNDVKDRISISRTSDVNAAPGYQNFVGFETGANGRRIPVFSYYNVNKARIQGVETELKIPFNDEWKLSINYTYNDGRDVSNGENKPLSDLPFHTANGTLDWKPLALEDWSFYVSGHYTGQKRADSATAKTPGGYTIWNTGAAWQVTKDVKLRAGVLNLGDKDLSRDDYSYNEDGRRYFMAVDYRF”, the “total protein half-life in vivo” value is, setting by setting: under setting [1], 3.86 ± 0.058 h; under setting [2], over 16 h; under setting [3], over 16 h.

On to “MQFSKMHGLGNDFMVVDAVTQNVFFSPELIRRLADRHLGVGFDQLLVVEPPYDPELDFHYRIFNADGSEVAQCGNGARCFARFVRLKGLTNKRDIRVSTANGRMVLTVTDDDLVRVNMGEPNFEPSAVPFRANKAEKTYIMRAAEQTILCGVVSMGNPHCVIQVDDVDTAAVETLGPVLESHERFPERANIGFMQVVKREHIRLRVYERGAGETQACGSGACAAVAVGIQQGLLAEEVRVELPGGRLDIAWKGPGHPLYMTGPAVHVYDGFIHL [P0A6K1]”, for which the “total protein half-life in vivo” value is 6.36 ± 1.1 h under setting [4]; 6.48 ± 2.1 h under setting [5]; 5.87 ± 0.47 h under setting [6]; 5.47 ± 0.1 h under setting [7]; 5.32 ± 0.55 h under setting [8]; 3.44 ± 0.073 h under setting [1]. Besides, the “total protein half-life in vivo” value turned out to be 5.92 ± 0.45 h under setting [9]; 9.56 ± 0.77 h under setting [10]; 5.53 ± 0.74 h under setting [11]; 9.83 ± 0.98 h under setting [2]; 5.42 ± 0.38 h under setting [12]; 11.859 ± 0.004 h under setting [3].

Turning to “MNIEELKKQAETEIADFIAQKIAELNKNTGKEVSEIRFTAREKMTGLESYDVKIKIM [P0AC92]”, the “total protein half-life in vivo” value was over 8 h under setting [4]; 5.88 ± 0.43 h under setting [5]; 6.62 ± 0.26 h under setting [6]; 6.72 ± 0.85 h under setting [7]; 5.86 ± 0.59 h under setting [8]; 2.98 ± 0.29 h under setting [1]. The “total protein half-life in vivo” value was found to be 4.55 ± 2.8 h under setting [9], 10 ± 1.4 h under setting [10], 5.99 ± 1.4 h under setting [11] and 6.14 h under setting [12].

Take “MKGSYKSRWVIVIVVVIAAIAAFWFWQGRNDSRSAAPGATKQAQQSPAGGRRGMRSGPLAPVQAATAVEQAVPRYLTGLGTITAANTVTVRSRVDGQLIALHFQEGQQVKAGDLLAEIDPSQFKVALAQAQGQLAKDKATLANARRDLARYQQLAKTNLVSRQELDAQQALVSETEGTIKADEASVASAQLQLDWSRITAPVDGRVGLKQVDVGNQISSGDTTGIVVITQTHPIDLVFTLPESDIATVVQAQKAGKPLVVEAWDRTNSKKLSEGTLLSLDNQIDATTGTIKVKARFNNQDDALFPNQFVNARMLVDTEQNAVVIPTAALQMGNEGHFVWVLNSENKVSKHLVTPGIQDSQKVVIRAGISAGDRVVTDGIDRLTEGAKVEVVEAQSATTPEEKATSREYAKKGARS”: the “total protein half-life in vivo” value is, setting by setting: under setting [4], 6.33 ± 0.75 h; under setting [7], 6.148 ± 0.046 h; under setting [8], 6.07 ± 0.51 h; under setting [9], 6.25 ± 0.65 h; under setting [10], 12.3 ± 0.27 h; under setting [11], 6.1255 ± 0.0044 h. Moreover, the “total protein half-life in vivo” value reads like this: under setting [2], 13.2 ± 0.32 h; under setting [12], 5.8716 ± 0.00037 h; under setting [3], 10.5 ± 0.89 h.

In the case of “MKTPLVTREGYEKLKQELNYLWREERPEVTKKVTWAASLGDRSENADYQYNKKRLREIDRRVRYLTKCLENLKIVDYSPQQEGKVFFGAWVEIENDDGVTHRFRIVGYDEIFGRKDYISIDSPMARALLKKEVGDLAVVNTPAGEASWYVNAIEYVKP”, the “total protein half-life in vivo” value turned out to be 4.94 ± 0.26 h under setting [4]; 3.85 ± 0.086 h under setting [5]; 3.36 ± 0.21 h under setting [6]; 4.34 ± 0.27 h under setting [7]; 3.07 ± 0.3 h under setting [8]; 2.83 ± 0.18 h under setting [1]. In addition, the “total protein half-life in vivo” value under setting [9] stood at 4.63 ± 0.26 h; the “total protein half-life in vivo” value under setting [10] is 7.33 ± 1.7 h; the “total protein half-life in vivo” value under setting [11] came out at 3.48 ± 0.33 h; the “total protein half-life in vivo” value under setting [2] was determined as 5.226 ± 0.025 h; the “total protein half-life in vivo” value under setting [12] is 4.65 ± 0.57 h; the “total protein half-life in vivo” value under setting [3] stood at 8.01 ± 0.72 h.

Consider “MESGHRFDAQTLHSFIQAVFRQMGSEEQEAKLVADHLIAANLAGHDSHGIGMIPSYVRSWSQGHLQINHHAKTVKEAGAAVTLDGDRAFGQVAAHEAMALGIEKAHQHGIAAVALHNSHHIGRIGYWAEQCAAAGFVSIHFVSVVGIPMVAPFHGRDSRFGTNPFCVVFPRKDNFPLLLDYATSAIAFGKTRVAWHKGVPVPPGCLIDVNGVPTTNPAVMQESPLGSLLTFAEHKGYALAAMCEILGGALSGGKTTHQETLQTSPDAILNCMTTIIINPELFGAPDCNAQTEAFAEWVKASPHDDDKPILLPGEWEVNTRRERQKQGIPLDAGSWQAICDAARQIGMPEETLQAFCQQLAS”, for which the “total protein half-life in vivo” value came out at 4.97 ± 0.25 h under setting [4]; 3.99 ± 0.17 h under setting [5]; 4.28 ± 0.11 h under setting [6]; 4.214 ± 0.024 h under setting [8]; 3.14 ± 0.059 h under setting [1]; 5.02 ± 0.63 h under setting [9]. Further, the “total protein half-life in vivo” value was 8.45 ± 0.26 h under setting [10]; 4.46 ± 0.42 h under setting [11]; 7.26 ± 1.5 h under setting [2]; 5.58 ± 0.14 h under setting [12]; 10.3 ± 1.2 h under setting [3].

Consider “MATNAKPVYKRILLKLSGEALQGTEGFGIDASILDRMAQEIKELVELGIQVGVVIGGGNLFRGAGLAKAGMNRVVGDHMGMLATVMNGLAMRDALHRAYVNARLMSAIPLNGVCDSYSWAEAISLLRNNRVVILSAGTGNPFFTTDSAACLRGIEIEADVVLKATKVDGVFTADPAKDPTATMYEQLTYSEVLEKELKVMDLAAFTLARDHKLPIRVFNMNKPGALRRVVMGEKEGTLITE [P0A7E9]”, for which the “total protein half-life in vivo” value runs as follows: under setting [4], 4.84 ± 0.3 h; under setting [5], 5.18 ± 0.45 h; under setting [6], 4.79 ± 0.38 h; under setting [7], 5.16 ± 0.34 h; under setting [8], 4.49 ± 0.16 h; under setting [1], 3.24 ± 0.27 h. Further, the “total protein half-life in vivo” value under setting [9] turned out to be 7 ± 1.2 h; the “total protein half-life in vivo” value under setting [10] was found to be 10.4 ± 1.8 h; the “total protein half-life in vivo” value under setting [11] turned out to be 4.93 ± 0.33 h; the “total protein half-life in vivo” value under setting [2] amounted to 8.29 ± 1 h; the “total protein half-life in vivo” value under setting [12] was found to be 5.84 ± 0.27 h; the “total protein half-life in vivo” value under setting [3] amounted to 14.4 ± 0.48 h.

Turning to “MKPRQRQAAILEYLQKQGKCSVEELAQYFDTTGTTIRKDLVILEHAGTVIRTYGGVVLNKEESDPPIDHKTLINTHKKELIAEAAVSFIHDGDSIILDAGSTVLQMVPLLSRFNNITVMTNSLHIVNALSELDNEQTILMPGGTFRKKSASFHGQLAENAFEHFTFDKLFMGTDGIDLNAGVTTFNEVYTVSKAMCNAAREVILMADSSKFGRKSPNVVCSLESVDKLITDAGIDPAFRQALEEKGIDVIITGESNE”, the “total protein half-life in vivo” value runs as follows: under setting [5], 6.55 ± 0.26 h; under setting [6], 5.66 ± 0.25 h; under setting [7], 6.11 ± 1 h; under setting [8], 6.36 ± 0.59 h; under setting [1], 3.36 ± 0.46 h; under setting [9], 6.64 ± 0.39 h. In addition, the “total protein half-life in vivo” value turned out to be 12.6 ± 2.2 h under setting [10]; 6.06 ± 0.35 h under setting [11]; 13 ± 0.2 h under setting [2]; 5.82 ± 0.56 h under setting [12]; 12.5 ± 0.15 h under setting [3].
